# Data as given in patent US20100144630.
# How the values were obtained:
# [1] = test system: alpha-1 antitrypsin (native, not heat-inactivated)
# [2] = test system: heat-inactivated alpha-1 antitrypsin
substance,measurement,setting,value
Elastase,"elastase activity: hydrolysis of N-Succinyl-Ala-Ala-Ala-p-nitroanalide, absorbance at 410 nm",[1],Combining native (NOT heat-inactivated) AAT ablated elastase processing of the N-Succinyl-Ala-Ala-Ala-p-nitroanalide substrate and blocked the increase in A410 nm
same,"elastase activity: hydrolysis of N-Succinyl-Ala-Ala-Ala-p-nitroanalide, absorbance at 410 nm",[2],combining HIAAT with elastase produced a curve similar to that of elastase alone. This demonstrated that HIAAT possessed no detectable elastase neutralizing activity
